# Data from patent US20240116985A1 (published 2024).
# Starred links: 1 amine or outer side, 2 acyl side, 3 side chain; linkers in the order of their positions; H or OH if unused. Positions of bridges follow the written chain, without caps; N, C: chain ends. Non-standard residues stand in square brackets, D forms with d. Primed or numbered codes have the meaning given here. PyrS2″ = (S)-3-amino-1-((pent-4-en-1-yloxy)carbonyl)pyrrolidine-3-carboxylic acid (stapling residue), C=CCCCOC(=O)N1CC[C@@](N[*:1])(C(=O)[*:2])C1; TfeGA = (S)-2-amino-3-((carboxymethyl)(2,2,2-trifluoroethyl)amino)propanoic acid, O=C([C@H](CN(CC(=O)[*:3])CC(F)(F)F)N[*:1])[*:2]; TriAzDap = Dap whose side chain is a 1H-1,2,3-triazol-1-yl bearing the bracketed 4-substituent; B5(3) = 2,2-bis(4-pentenyl)glycine (stitching residue), C=CCCCC(CCCC=C)(N[*:1])C(=O)[*:2]; Phe(3-COOH) = N[C@@H](Cc1cccc(C(=O)O)c1)C(=O)O; Phe(2-CF3) = N[C@@H](Cc1ccccc1C(F)(F)F)C(=O)O; Phe(2-Cl) = N[C@@H](Cc1ccccc1Cl)C(=O)O; Bta = N[C@@H](Cc1csc2ccccc12)C(=O)O; αAllylPro = C=CC[C@@]1(C(=O)O)CCCN1; tBuAla = CC(C)(C)C[C@H](N)C(=O)O; hSer = N[C@@H](CCO)C(=O)O; Abu = CC[C@H](N)C(=O)O; Aib = CC(C)(N)C(=O)O
# T1: beta-catenin in DLD1 TCF/LEF luciferase reporter cells (UniProt P35222 1-781)
# T1 sequence (looked up): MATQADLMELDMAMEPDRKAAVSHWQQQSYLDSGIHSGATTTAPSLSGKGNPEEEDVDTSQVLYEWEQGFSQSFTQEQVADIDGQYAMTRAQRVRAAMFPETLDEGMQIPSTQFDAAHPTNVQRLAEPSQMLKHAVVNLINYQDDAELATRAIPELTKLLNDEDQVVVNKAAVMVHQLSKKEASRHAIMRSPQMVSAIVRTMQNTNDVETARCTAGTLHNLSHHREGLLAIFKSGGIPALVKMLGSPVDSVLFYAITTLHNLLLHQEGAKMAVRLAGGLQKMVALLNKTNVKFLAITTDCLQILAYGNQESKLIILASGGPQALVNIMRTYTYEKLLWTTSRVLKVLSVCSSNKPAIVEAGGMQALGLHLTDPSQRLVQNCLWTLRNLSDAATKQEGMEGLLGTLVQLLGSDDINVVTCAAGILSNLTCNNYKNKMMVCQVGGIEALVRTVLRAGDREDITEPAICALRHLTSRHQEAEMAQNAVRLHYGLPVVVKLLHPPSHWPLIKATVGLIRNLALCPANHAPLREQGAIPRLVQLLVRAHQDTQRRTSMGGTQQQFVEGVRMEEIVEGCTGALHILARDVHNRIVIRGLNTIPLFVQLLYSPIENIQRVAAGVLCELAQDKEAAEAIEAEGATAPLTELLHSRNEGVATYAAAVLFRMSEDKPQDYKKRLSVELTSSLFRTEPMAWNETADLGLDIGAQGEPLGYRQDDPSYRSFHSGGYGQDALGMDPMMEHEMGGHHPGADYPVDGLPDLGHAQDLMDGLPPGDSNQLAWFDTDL
# T2: B-cat-Halo (beta-catenin HaloTag NanoBRET construct expressed in HEK293 cells) (UniProt P35222 1-781)
# T2 sequence (looked up): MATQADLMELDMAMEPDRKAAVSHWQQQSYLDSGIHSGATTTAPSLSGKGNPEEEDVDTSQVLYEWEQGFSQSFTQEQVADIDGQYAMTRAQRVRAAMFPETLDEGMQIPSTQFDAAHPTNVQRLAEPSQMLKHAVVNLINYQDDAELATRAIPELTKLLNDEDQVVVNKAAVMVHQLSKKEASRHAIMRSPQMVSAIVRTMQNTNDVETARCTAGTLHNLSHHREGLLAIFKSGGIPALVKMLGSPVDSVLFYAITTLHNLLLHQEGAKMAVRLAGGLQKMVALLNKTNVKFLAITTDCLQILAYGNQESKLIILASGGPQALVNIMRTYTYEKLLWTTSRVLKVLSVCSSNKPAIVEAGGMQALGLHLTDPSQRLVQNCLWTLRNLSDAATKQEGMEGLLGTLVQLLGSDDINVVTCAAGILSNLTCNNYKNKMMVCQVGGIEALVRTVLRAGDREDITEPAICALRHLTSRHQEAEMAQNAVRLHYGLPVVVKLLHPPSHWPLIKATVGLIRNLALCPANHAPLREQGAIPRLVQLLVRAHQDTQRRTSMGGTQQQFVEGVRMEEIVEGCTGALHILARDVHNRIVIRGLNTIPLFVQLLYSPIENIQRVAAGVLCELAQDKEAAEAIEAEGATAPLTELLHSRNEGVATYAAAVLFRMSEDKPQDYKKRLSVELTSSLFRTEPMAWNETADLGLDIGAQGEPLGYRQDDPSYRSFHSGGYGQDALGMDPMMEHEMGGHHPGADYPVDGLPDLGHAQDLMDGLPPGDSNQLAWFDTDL
# T3: beta-catenin in DLD1 TCF/LEF luciferase reporter cells (UniProt P35222 1-781)
# T3 sequence (looked up): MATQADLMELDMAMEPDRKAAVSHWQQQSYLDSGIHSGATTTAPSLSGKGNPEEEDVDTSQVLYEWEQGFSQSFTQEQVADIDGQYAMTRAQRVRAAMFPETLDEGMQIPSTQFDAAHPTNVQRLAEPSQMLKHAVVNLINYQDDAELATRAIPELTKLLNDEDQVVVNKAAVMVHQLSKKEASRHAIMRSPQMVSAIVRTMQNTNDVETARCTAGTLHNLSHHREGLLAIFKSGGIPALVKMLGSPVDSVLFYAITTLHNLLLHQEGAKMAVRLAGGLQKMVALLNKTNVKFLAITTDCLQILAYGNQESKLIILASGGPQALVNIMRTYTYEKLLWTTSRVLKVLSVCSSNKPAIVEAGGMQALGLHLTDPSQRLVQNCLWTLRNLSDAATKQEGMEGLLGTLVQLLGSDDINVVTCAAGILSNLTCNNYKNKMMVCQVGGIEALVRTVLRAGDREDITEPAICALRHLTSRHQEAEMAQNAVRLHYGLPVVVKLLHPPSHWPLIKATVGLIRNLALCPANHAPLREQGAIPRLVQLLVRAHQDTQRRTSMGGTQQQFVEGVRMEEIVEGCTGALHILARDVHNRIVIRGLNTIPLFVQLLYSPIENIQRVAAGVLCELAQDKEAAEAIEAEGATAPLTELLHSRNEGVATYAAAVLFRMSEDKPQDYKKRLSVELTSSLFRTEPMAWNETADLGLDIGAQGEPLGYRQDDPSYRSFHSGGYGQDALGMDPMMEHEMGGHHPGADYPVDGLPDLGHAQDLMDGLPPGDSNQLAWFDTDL
# T4: beta-catenin in DLD1 TCF/LEF luciferase reporter cells (UniProt P35222 1-781)
# T4 sequence (looked up): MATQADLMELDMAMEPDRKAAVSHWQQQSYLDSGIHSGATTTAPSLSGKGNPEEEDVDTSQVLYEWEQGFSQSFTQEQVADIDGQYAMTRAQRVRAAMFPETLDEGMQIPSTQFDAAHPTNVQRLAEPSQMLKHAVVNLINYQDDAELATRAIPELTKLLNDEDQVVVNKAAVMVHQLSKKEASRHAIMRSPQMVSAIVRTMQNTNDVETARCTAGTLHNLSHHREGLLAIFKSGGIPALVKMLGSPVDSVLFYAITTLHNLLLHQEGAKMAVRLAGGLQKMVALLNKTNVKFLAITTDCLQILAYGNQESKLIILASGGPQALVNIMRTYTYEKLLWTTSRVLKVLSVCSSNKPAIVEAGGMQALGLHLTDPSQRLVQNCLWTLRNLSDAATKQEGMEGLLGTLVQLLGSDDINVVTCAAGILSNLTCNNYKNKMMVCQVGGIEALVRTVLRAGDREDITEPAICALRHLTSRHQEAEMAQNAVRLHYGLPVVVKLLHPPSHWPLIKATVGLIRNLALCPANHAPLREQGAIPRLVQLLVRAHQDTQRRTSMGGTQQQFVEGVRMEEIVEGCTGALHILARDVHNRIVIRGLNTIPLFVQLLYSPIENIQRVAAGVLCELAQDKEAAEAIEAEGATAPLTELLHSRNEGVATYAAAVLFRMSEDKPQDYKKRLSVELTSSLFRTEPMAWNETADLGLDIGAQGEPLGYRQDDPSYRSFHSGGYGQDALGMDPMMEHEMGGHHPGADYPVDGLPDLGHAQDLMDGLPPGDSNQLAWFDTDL
# Experiments:
# Experiment in all cases: cell-based or functional assay
# [1] = target: T1, beta-catenin in DLD1 TCF/LEF luciferase …
# [2] = target: T2, B-cat-Halo (beta-catenin HaloTag …)
# [3] = target: T3, beta-catenin in DLD1 TCF/LEF luciferase …; remark: listed apart in the source
# [4] = target: T4, beta-catenin in DLD1 TCF/LEF luciferase …; remark: listed apart in the source
binder,measurement,setting,value
"Ac-[αAllylPro]D[tBuAla][B5(3)]D[Phe(3-COOH)][Aib]AF[Abu][PyrS2″][Phe(2-CF3)][Bta][Me2Gln]A-NH2 (staple 1-4, 4-11) [Ac-PL3-Asp-Npg-B5-Asp-3COOHF-Aib-Ala-Phe-Abu-PyrS2-2F3MeF-BztA-Me2Gln-Ala-NH2]",DLD1 4% Abs IC50,[1],6.4 µM
same,NanoBRET Abs IC50,[2],6.2 µM
"Ac-[αAllylPro]D[tBuAla][B5(3)]D[TriAzDap](CH2CMe2CO2H)AAFL[PyrS2″][Phe(2-CF3)][Bta]S-NH2 (staple 1-4, 4-11) [I-2372]",DLD1 4% Abs IC50,[3],2.1 µM
"Ac-[αAllylPro]D[tBuAla][B5(3)]D[TfeGA]AAF[hSer][PyrS2″][Phe(2-Cl)][Bta][hSer]-NH2 (staple 1-4, 4-11) [I-993]",DLD1 reporter assay Abs IC50,[4],4.4 µM
